Laboratory results taken from the Immune Epitope Database (IEDB).
One block for each sequence: values may come before it.

Experiments:
[1] = target: HLA-B*15:09; test: IEDB peptide-MHC binding, purified MHC/competitive/fluorescence; filed as Kd, often an IC50 or EC50 that approximates it; ≥ and ≤ were set here for values at or beyond the usual limits of such assays; conditions: source organism: Salmonella enterica subsp. enterica serovar Typhi
[2] = target: HLA-B*58:01; test: as above
[3] = target: HLA-A*03:01; test: as above; conditions: source organism: Salmonella enterica subsp. enterica serovar Typhi
[4] = target: HLA-A*31:01; test: as above; conditions: source organism: Salmonella enterica subsp. enterica serovar Typhi
[5] = target: HLA-B*08:01; test: as above
[6] = target: HLA-A*02:03; test: as above; conditions: source organism: Salmonella enterica subsp. enterica serovar Typhi
[7] = target: HLA-A*11:01; test: as above
[8] = target: HLA-B*40:01; test: as above
[9] = target: HLA-B*15:01; test: as above; conditions: source organism: Salmonella enterica subsp. enterica serovar Typhi
[10] = target: HLA-B*38:01; test: as above; conditions: source organism: Salmonella enterica subsp. enterica serovar Typhi
[11] = target: HLA-A*02:01; test: as above; conditions: source organism: Salmonella enterica subsp. enterica serovar Typhi
[12] = target: HLA-B*46:01; test: as above; conditions: source organism: Salmonella enterica subsp. enterica serovar Typhi
[13] = target: HLA-A*30:01; test: as above
[14] = target: HLA-B*27:05; test: as above
[15] = target: HLA-A*69:01; test: as above; conditions: source organism: Salmonella enterica subsp. enterica serovar Typhi
[16] = target: HLA-B*15:17; test: as above; conditions: source organism: Salmonella enterica subsp. enterica serovar Typhi
[17] = target: HLA-B*48:01; test: as above; conditions: source organism: Salmonella enterica subsp. enterica serovar Typhi
[18] = target: HLA-A*02:06; test: as above; conditions: source organism: Salmonella enterica subsp. enterica serovar Typhi
[19] = target: HLA-B*07:02; test: as above; conditions: source organism: Salmonella enterica subsp. enterica serovar Typhi
[20] = target: HLA-A*01:01; test: as above
[21] = target: HLA-C*05:01; test: IEDB peptide-MHC binding, purified MHC/direct/fluorescence; filed as Kd, often an IC50 or EC50 that approximates it; ≥ and ≤ were set here for values at or beyond the usual limits of such assays; conditions: source organism: Salmonella enterica subsp. enterica serovar Typhi str. CT18
[22] = target: HLA-A*11:01; test: IEDB peptide-MHC binding, purified MHC/competitive/radioactivity; ≥ and ≤ were set here for values at or beyond the usual limits of such assays; conditions: source organism: Rhinovirus C
[23] = target: HLA-B*44:02; test: IEDB peptide-MHC binding, purified MHC/competitive/fluorescence; ≥ and ≤ were set here for values at or beyond the usual limits of such assays; conditions: source organism: Homo sapiens
[24] = target: HLA-A*24:02; test: as above; conditions: source organism: Homo sapiens
[25] = target: HLA-B*53:01; test: IEDB peptide-MHC binding, purified MHC/competitive/fluorescence; filed as Kd, often an IC50 or EC50 that approximates it; ≥ and ≤ were set here for values at or beyond the usual limits of such assays; conditions: source organism: Mycobacterium tuberculosis variant bovis BCG str. Pasteur 1173P2
[26] = target: HLA-B*44:02; test: as above; conditions: source organism: Mycobacterium tuberculosis variant bovis BCG str. Pasteur 1173P2
[27] = target: HLA-B*14:02; test: as above; conditions: source organism: Mycobacterium tuberculosis variant bovis BCG str. Pasteur 1173P2
[28] = target: HLA-A*23:01; test: as above; conditions: source organism: Mycobacterium tuberculosis variant bovis BCG str. Pasteur 1173P2
[29] = target: HLA-A*66:01; test: as above; conditions: source organism: Mycobacterium tuberculosis variant bovis BCG str. Pasteur 1173P2
[30] = target: HLA-A*30:02; test: as above; conditions: source organism: Mycobacterium tuberculosis variant bovis BCG str. Pasteur 1173P2
[31] = target: HLA-B*51:01; test: IEDB peptide-MHC binding, purified MHC/direct/fluorescence; filed as Kd, often an IC50 or EC50 that approximates it; ≥ and ≤ were set here for values at or beyond the usual limits of such assays; conditions: source organism: Mycobacterium tuberculosis str. Haarlem
[32] = target: HLA-A*03:01; test: as above; conditions: source organism: Mycobacterium tuberculosis str. Haarlem
[33] = target: HLA-A*24:03; test: as above; conditions: source organism: Mycobacterium tuberculosis str. Haarlem
[34] = target: HLA-A*02:12; test: as above; conditions: source organism: Mycobacterium tuberculosis str. Haarlem
[35] = target: HLA-B*57:01; test: as above; conditions: source organism: Mycobacterium tuberculosis str. Haarlem
[36] = target: HLA-A*02:01; test: as above; conditions: source organism: Mycobacterium tuberculosis str. Haarlem
[37] = target: HLA-A*29:02; test: as above; conditions: source organism: Mycobacterium tuberculosis str. Haarlem
[38] = target: HLA-B*46:01; test: as above; conditions: source organism: Mycobacterium tuberculosis str. Haarlem
[39] = target: HLA-A*26:01; test: as above; conditions: source organism: Mycobacterium tuberculosis str. Haarlem
[40] = target: HLA-B*39:01; test: as above; conditions: source organism: Mycobacterium tuberculosis str. Haarlem
[41] = target: HLA-A*02:06; test: as above; conditions: source organism: Mycobacterium tuberculosis str. Haarlem
[42] = target: HLA-B*27:03; test: as above; conditions: source organism: Mycobacterium tuberculosis str. Haarlem
[43] = target: HLA-B*18:01; test: as above; conditions: source organism: Mycobacterium tuberculosis str. Haarlem
[44] = source organism: Salmonella enterica subsp. enterica serovar Typhi
[45] = source organism: Mycobacterium tuberculosis variant bovis BCG str. Pasteur 1173P2

Sequence: LSEEANWAF
Kd [1]: ≥ 20 µM
Kd [2, 44]: 0.498 µM
Kd [3]: ≥ 20 µM
Kd [4]: ≥ 20 µM
Kd [5, 44]: ≥ 20 µM
Kd [6]: ≥ 20 µM
Kd [7, 44]: ≥ 20 µM
Kd [8, 44]: ≥ 20 µM
Kd [9]: 0.947 µM
Kd [10]: ≥ 20 µM
Kd [11]: ≥ 20 µM
Kd [12]: ≥ 20 µM
Kd [13, 44]: ≥ 20 µM
Kd [14, 44]: ≥ 20 µM
Kd [15]: ≥ 20 µM
Kd [16]: 0.0232 µM
Kd [17]: ≥ 20 µM
Kd [18]: 0.0517 µM
Kd [19]: ≥ 20 µM
Kd [20, 44]: 0.0423 µM
Kd [21]: 0.005 µM

Sequence: KYFNINYYK
IC50 [22]: 0.2 µM

IC50 [23]: ≥ 20 µM
IC50 [24]: 2.61 µM
Sequence: FYYNAFHW

Sequence: RVACRDVEV
Kd [25]: ≥ 5 µM
Kd [2, 45]: ≥ 5 µM
Kd [5, 45]: ≥ 5 µM
Kd [7, 45]: ≥ 5 µM
Kd [8, 45]: ≥ 5 µM
Kd [26]: ≥ 5 µM
Kd [27]: 3 µM
Kd [13, 45]: ≥ 5 µM
Kd [14, 45]: ≥ 5 µM
Kd [28]: ≥ 5 µM
Kd [29]: ≥ 5 µM
Kd [30]: ≥ 5 µM
Kd [20, 45]: ≥ 5 µM
Kd [31]: ≥ 20 µM
Kd [32]: ≥ 20 µM
Kd [33]: ≥ 20 µM
Kd [34]: 0.032 µM
Kd [35]: ≥ 20 µM
Kd [36]: 0.254 µM
Kd [37]: ≥ 20 µM
Kd [38]: ≥ 20 µM
Kd [39]: ≥ 20 µM
Kd [40]: ≥ 20 µM
Kd [41]: 0.002 µM
Kd [42]: ≥ 20 µM
Kd [43]: ≥ 20 µM
